Starred links: 1 amine or outer side, 2 acyl side, 3 side chain; linkers in the order of their positions; H or OH if unused. Non-standard residues stand in square brackets, D forms with d. Groups on a side chain read outwards from the residue. No end group written: not given here. *: point of attachment. γGlu = O=C(O)[C@H](CCC(=O)[*:2])N[*:1]; Palmitoyl = CCCCCCCCCCCCCCCC(=O)*; αMeF = C[C@](N)(Cc1ccccc1)C(=O)O; αMeK = C[C@](N)(CCCCN)C(=O)O; αMeS = C[C@](N)(CO)C(=O)O; Aib = CC(C)(N)C(=O)O
T1: GLP-1R (INS1e assay) (UniProt P32301 22-463, limits assumed)
T1 sequence (looked up): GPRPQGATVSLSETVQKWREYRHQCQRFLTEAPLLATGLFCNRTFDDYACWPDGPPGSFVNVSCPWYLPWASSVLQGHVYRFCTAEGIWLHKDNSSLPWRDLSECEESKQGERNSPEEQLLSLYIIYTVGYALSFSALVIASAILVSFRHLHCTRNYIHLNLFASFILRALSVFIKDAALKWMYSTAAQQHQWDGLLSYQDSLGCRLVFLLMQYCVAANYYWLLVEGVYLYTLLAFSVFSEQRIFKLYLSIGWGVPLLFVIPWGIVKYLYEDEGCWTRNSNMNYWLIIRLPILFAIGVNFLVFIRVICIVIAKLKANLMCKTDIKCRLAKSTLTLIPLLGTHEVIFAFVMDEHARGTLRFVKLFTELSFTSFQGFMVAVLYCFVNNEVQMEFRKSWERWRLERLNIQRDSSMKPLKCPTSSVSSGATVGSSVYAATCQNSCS

B1: SEQ ID NO 84 (peptide)
peptide: H[Aib]EGS[αMeF]TSDV[αMeS]S[αMeF]LEK([γGlu-Palmitoyl])EAA[αMeK]E[αMeF]IA[αMeF]VV[αMeK]GG-NH2
modifications: N-terminus assumed
SMILES: CCCCCCCCCCCCCCCC(=O)N[C@@H](CCC(=O)NCCCC[C@H](NC(=O)[C@H](CCC(=O)O)NC(=O)[C@H](CC(C)C)NC(=O)[C@](C)(Cc1ccccc1)NC(=O)[C@H](CO)NC(=O)[C@](C)(CO)NC(=O)[C@@H](NC(=O)[C@H](CC(=O)O)NC(=O)[C@H](CO)NC(=O)[C@@H](NC(=O)[C@](C)(Cc1ccccc1)NC(=O)[C@H](CO)NC(=O)CNC(=O)[C@H](CCC(=O)O)NC(=O)C(C)(C)NC(=O)[C@@H](N)Cc1c[nH]cn1)[C@@H](C)O)C(C)C)C(=O)N[C@@H](CCC(=O)O)C(=O)N[C@@H](C)C(=O)N[C@@H](C)C(=O)N[C@@](C)(CCCCN)C(=O)N[C@@H](CCC(=O)O)C(=O)N[C@@](C)(Cc1ccccc1)C(=O)N[C@H](C(=O)N[C@@H](C)C(=O)N[C@@](C)(Cc1ccccc1)C(=O)N[C@H](C(=O)N[C@H](C(=O)N[C@@](C)(CCCCN)C(=O)NCC(=O)NCC(N)=O)C(C)C)C(C)C)[C@@H](C)CC)C(=O)O
B2: SEQ ID NO 82 (peptide)
peptide: H[Aib]EGS[αMeF]TSDV[αMeS]S[αMeF]LEGEK([γGlu-Palmitoyl])A[αMeK]E[αMeF]IA[αMeF]VV[αMeK]GG-NH2
modifications: N-terminus assumed
SMILES: CCCCCCCCCCCCCCCC(=O)N[C@@H](CCC(=O)NCCCC[C@H](NC(=O)[C@H](CCC(=O)O)NC(=O)CNC(=O)[C@H](CCC(=O)O)NC(=O)[C@H](CC(C)C)NC(=O)[C@](C)(Cc1ccccc1)NC(=O)[C@H](CO)NC(=O)[C@](C)(CO)NC(=O)[C@@H](NC(=O)[C@H](CC(=O)O)NC(=O)[C@H](CO)NC(=O)[C@@H](NC(=O)[C@](C)(Cc1ccccc1)NC(=O)[C@H](CO)NC(=O)CNC(=O)[C@H](CCC(=O)O)NC(=O)C(C)(C)NC(=O)[C@@H](N)Cc1c[nH]cn1)[C@@H](C)O)C(C)C)C(=O)N[C@@H](C)C(=O)N[C@@](C)(CCCCN)C(=O)N[C@@H](CCC(=O)O)C(=O)N[C@@](C)(Cc1ccccc1)C(=O)N[C@H](C(=O)N[C@@H](C)C(=O)N[C@@](C)(Cc1ccccc1)C(=O)N[C@H](C(=O)N[C@H](C(=O)N[C@@](C)(CCCCN)C(=O)NCC(=O)NCC(N)=O)C(C)C)C(C)C)[C@@H](C)CC)C(=O)O
B3: SEQ ID NO 80 (peptide)
peptide: H[Aib]EGS[αMeF]TSDV[αMeS]S[αMeF]LEGEAAK([γGlu-Palmitoyl])E[αMeF]IA[αMeF]VV[αMeK]GG-NH2
modifications: N-terminus assumed
SMILES: CCCCCCCCCCCCCCCC(=O)N[C@@H](CCC(=O)NCCCC[C@H](NC(=O)[C@H](C)NC(=O)[C@H](C)NC(=O)[C@H](CCC(=O)O)NC(=O)CNC(=O)[C@H](CCC(=O)O)NC(=O)[C@H](CC(C)C)NC(=O)[C@](C)(Cc1ccccc1)NC(=O)[C@H](CO)NC(=O)[C@](C)(CO)NC(=O)[C@@H](NC(=O)[C@H](CC(=O)O)NC(=O)[C@H](CO)NC(=O)[C@@H](NC(=O)[C@](C)(Cc1ccccc1)NC(=O)[C@H](CO)NC(=O)CNC(=O)[C@H](CCC(=O)O)NC(=O)C(C)(C)NC(=O)[C@@H](N)Cc1c[nH]cn1)[C@@H](C)O)C(C)C)C(=O)N[C@@H](CCC(=O)O)C(=O)N[C@@](C)(Cc1ccccc1)C(=O)N[C@H](C(=O)N[C@@H](C)C(=O)N[C@@](C)(Cc1ccccc1)C(=O)N[C@H](C(=O)N[C@H](C(=O)N[C@@](C)(CCCCN)C(=O)NCC(=O)NCC(N)=O)C(C)C)C(C)C)[C@@H](C)CC)C(=O)O
B4: SEQ ID NO 83 (peptide)
peptide: H[Aib]EGS[αMeF]TSDV[αMeS]S[αMeF]LEGK([γGlu-Palmitoyl])AA[αMeK]E[αMeF]IA[αMeF]VV[αMeK]GG-NH2
modifications: N-terminus assumed
SMILES: CCCCCCCCCCCCCCCC(=O)N[C@@H](CCC(=O)NCCCC[C@H](NC(=O)CNC(=O)[C@H](CCC(=O)O)NC(=O)[C@H](CC(C)C)NC(=O)[C@](C)(Cc1ccccc1)NC(=O)[C@H](CO)NC(=O)[C@](C)(CO)NC(=O)[C@@H](NC(=O)[C@H](CC(=O)O)NC(=O)[C@H](CO)NC(=O)[C@@H](NC(=O)[C@](C)(Cc1ccccc1)NC(=O)[C@H](CO)NC(=O)CNC(=O)[C@H](CCC(=O)O)NC(=O)C(C)(C)NC(=O)[C@@H](N)Cc1c[nH]cn1)[C@@H](C)O)C(C)C)C(=O)N[C@@H](C)C(=O)N[C@@H](C)C(=O)N[C@@](C)(CCCCN)C(=O)N[C@@H](CCC(=O)O)C(=O)N[C@@](C)(Cc1ccccc1)C(=O)N[C@H](C(=O)N[C@@H](C)C(=O)N[C@@](C)(Cc1ccccc1)C(=O)N[C@H](C(=O)N[C@H](C(=O)N[C@@](C)(CCCCN)C(=O)NCC(=O)NCC(N)=O)C(C)C)C(C)C)[C@@H](C)CC)C(=O)O
B5: SEQ ID NO 86 (peptide)
peptide: H[Aib]EGS[αMeF]TSDV[αMeS]S[αMeF]K([γGlu-Palmitoyl])EGEAA[αMeK]E[αMeF]IA[αMeF]VV[αMeK]GG-NH2
modifications: N-terminus assumed
SMILES: CCCCCCCCCCCCCCCC(=O)N[C@@H](CCC(=O)NCCCC[C@H](NC(=O)[C@](C)(Cc1ccccc1)NC(=O)[C@H](CO)NC(=O)[C@](C)(CO)NC(=O)[C@@H](NC(=O)[C@H](CC(=O)O)NC(=O)[C@H](CO)NC(=O)[C@@H](NC(=O)[C@](C)(Cc1ccccc1)NC(=O)[C@H](CO)NC(=O)CNC(=O)[C@H](CCC(=O)O)NC(=O)C(C)(C)NC(=O)[C@@H](N)Cc1c[nH]cn1)[C@@H](C)O)C(C)C)C(=O)N[C@@H](CCC(=O)O)C(=O)NCC(=O)N[C@@H](CCC(=O)O)C(=O)N[C@@H](C)C(=O)N[C@@H](C)C(=O)N[C@@](C)(CCCCN)C(=O)N[C@@H](CCC(=O)O)C(=O)N[C@@](C)(Cc1ccccc1)C(=O)N[C@H](C(=O)N[C@@H](C)C(=O)N[C@@](C)(Cc1ccccc1)C(=O)N[C@H](C(=O)N[C@H](C(=O)N[C@@](C)(CCCCN)C(=O)NCC(=O)NCC(N)=O)C(C)C)C(C)C)[C@@H](C)CC)C(=O)O

Biological target: T1, GLP-1R (INS1e assay)
Test: cell-based or functional assay

INS1e assay EC50 GLP-1 R n1 [nM]	INS1e assay EC50 GLP-1 R n2 [nM]	INS1e assay EC50 Mean pM GLP-1R [pM]	Binder
0.455	0.665	560	B1
0.151	0.238	195	B2
3.89	1.33	2610	B3
0.137	0.25	194	B4
0.0453	0.0845	65	B5
